Reference: patent US20240352438A1, “MEANS AND METHODS FOR DETOXIFYING OCHRATOXIN A” (DSM Austria GmbH, priority 2021, published 2024)
Residue numbers refer to the chain shown, from its start.

B1: 198 (protein)
chain: MTTRTRILTAFLSLLAANACAADAAPAAPHTVVLRAARMFDGASGKLVDHPQLTIVGNKIVRIAQGDKAEVPAGAEVVDLGDATLLPGFIDAHVHLSGQSSDNFYGDFFDNMMRFPAEQALYGAYYARITLEAGFTSVRDVGSTDWVALGLRNAIDAGKVPGPRMLVSNYAVGSTGGHADQDPIPPHKLPLAGPLQGVCNGPEECRAAVRYQIKYGANVIKFMPSGGVLSLSDPVDAPELSQDEMNAVIGESHAWGRKVAAHAHGDKAAKMAVAAGVDSIEHGSFIEDDTLRAMKAKNVYLVPTISAIAHVEEKIGTFPPVIAEKGRAAAAHLRQTFRHAVQIGVPIALGTDAGVGAHGSNAREFRYMVENGLTPAQALLAGTANAARLLGTFDRVGTLEAGKLADVVAVPGNPIADITVTERPLFVMKDGVVVRRDAVR
modifications: exemplary polypeptide
B2: 200 (protein)
chain: B1 chain with F104P
modifications: exemplary polypeptide
B3: 218 (protein)
chain: B1 chain with F104W, H187D
modifications: exemplary polypeptide
B4: 225 (protein)
chain: B1 chain with F104W, G226A
modifications: exemplary polypeptide
B5: 201 (protein)
chain: B1 chain with F104Y
modifications: exemplary polypeptide
B6: 219 (protein)
chain: B1 chain with F104W, H187E
modifications: exemplary polypeptide
B7: 211 (protein)
chain: B1 chain with H50N, F104W
modifications: exemplary polypeptide
B8: 210 (protein)
chain: B1 chain with H50D, F104W
modifications: exemplary polypeptide
B9: 217 (protein)
chain: B1 chain with F104W, T130E
modifications: exemplary polypeptide
B10: 224 (protein)
chain: B1 chain with F104W, K188R
modifications: exemplary polypeptide
B11: 216 (protein)
chain: B1 chain with N103Q, F104W
modifications: exemplary polypeptide
B12: 214 (protein)
chain: B1 chain with N103D, F104W
modifications: exemplary polypeptide
B13: 209 (protein)
chain: B1 chain with H30R, F104W
modifications: exemplary polypeptide
B14: 202 (protein)
chain: B1 chain with F104W, I322L
modifications: exemplary polypeptide
B15: 206 (protein)
chain: B1 chain with H30E, F104W
modifications: exemplary polypeptide
B16: 203 (protein)
chain: B1 chain with F104W, I322M
modifications: exemplary polypeptide
B17: 220 (protein)
chain: B1 chain with F104W, H187G
modifications: exemplary polypeptide
B18: 230 (protein)
chain: B1 chain with F104W, S230T
modifications: exemplary polypeptide
B19: 208 (protein)
chain: B1 chain with H30P, F104W
modifications: exemplary polypeptide
B20: 227 (protein)
chain: B1 chain with F104W, G226S
modifications: exemplary polypeptide
B21: 235 (protein)
chain: B1 chain with F104W, H253N
modifications: exemplary polypeptide
B22: 213 (protein)
chain: B1 chain with S100D, F104W
modifications: exemplary polypeptide
B23: 207 (protein)
chain: B1 chain with H30K, F104W
modifications: exemplary polypeptide
B24: 234 (protein)
chain: B1 chain with F104W, H253A
modifications: exemplary polypeptide
B25: 231 (protein)
chain: B1 chain with F104W, D233N
modifications: exemplary polypeptide

Experiment: Enzymatic activity comparison: activity remaining after 65° C. for 10 min at pH 6.0, relative to SEQ ID NO: 1
Type: physicochemical
Conditions: not given
Method: To compare the temperature behavior and thermostability of selected enzymes to one another, enzyme was incubated at 65° C. for 10 min at pH 6.0. The enzymatic activity remaining after incubation was compared to the remaining activity of the enzyme of SEQ ID NO: 1 after incubation, the latter being set to 100%, see Table 16.

| Molecule | Enzymatic activity remaining after incubation, compared to SEQ ID NO: 1 (set to 100%) [%] |
| --- | --- |
| B1 | 55 |
| B2 | 88 |
| B3 | 28 |
| B4 | 84 |
| B5 | 54 |
| B6 | 38 |
| B7 | 34 |
| B8 | 39 |
| B9 | 36 |
| B10 | 40 |
| B11 | 14 |
| B12 | 59 |
| B13 | 31 |
| B14 | 25 |
| B15 | 42 |
| B16 | 10 |
| B17 | 22 |
| B18 | 32 |
| B19 | 35 |
| B20 | 24 |
| B21 | 56 |
| B22 | 25 |
| B23 | 37 |
| B24 | 50 |
| B25 | 75 |

Experiment: OTA detoxification activity assay (specific activity, fluorescence reduction ex/em 390/450 nm)
Type: biochemical
Conditions: pH 6.0; SEQ ID NO: 1 = 100%
Method in brief: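 Recombinant enzyme preparation with 200 ng/mL OTA in 100 mM sodium phosphate, at pH 6.0 and pH 7.5, 37° C. Degradation followed as the fall in fluorescence at ex/em 390/450 nm. Specific activity taken from the initial linear slope; one unit degrades 1 μmol OTA per min at a starting OTA of […].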

| Molecule | Specific OTA detoxification activities in % compared to the enzyme of SEQ ID NO: 1, pH 6.0 [%] |
| --- | --- |
| B1 | 111 |
| B2 | 18 |
| B3 | 104 |
| B4 | 24 |
| B5 | 134 |
| B6 | 87 |
| B7 | 121 |
| B8 | 93 |
| B9 | 153 |
| B10 | 169 |
| B11 | 147 |
| B12 | 123 |
| B13 | 143 |
| B14 | 59 |
| B15 | 168 |
| B16 | 100 |
| B17 | 85 |
| B18 | 141 |
| B19 | 135 |
| B20 | 47 |
| B21 | 56 |
| B22 | 76 |
| B23 | 87 |
| B24 | 23 |
| B25 | 20 |

Same assay, conditions: pH 7.5; SEQ ID NO: 1 = 100%

| Molecule | Specific OTA detoxification activities in % compared to the enzyme of SEQ ID NO: 1, pH 7.5 [%] |
| --- | --- |
| B1 | 84 |
| B2 | 25 |
| B3 | 101 |
| B4 | 27 |
| B5 | 121 |
| B6 | 88 |
| B7 | 111 |
| B8 | 102 |
| B9 | 139 |
| B10 | 132 |
| B11 | 115 |
| B12 | 108 |
| B13 | 88 |
| B14 | 47 |
| B15 | 112 |
| B16 | 70 |
| B17 | 83 |
| B18 | 127 |
| B19 | 108 |
| B20 | 36 |
| B21 | 38 |
| B22 | 39 |
| B23 | 72 |
| B24 | 13 |
| B25 | 22 |
